Tests used:
[1] = molecular target: Proteus mirabilis ScsC (Proteus mirabilis); experiment: mass photometry; reduced proteins diluted to ~150 nM and added in 2 µl steps to 10 µl buffer (25 mM HEPES pH 7.5, 150 mM NaCl); Refeyn One; mass of the main peak against the monomer's mass
[2] = molecular target: Caulobacter crescentus suppressor of copper sensitivity protein C, C2S variant (Caulobacter crescentus); experiment: as above
[3] = molecular target: Caulobacter crescentus suppressor of copper sensitivity protein C, C2S variant (Caulobacter crescentus); experiment: crystal structure; reduced CcScsC C2S at 130 mg/ml, 37-39% MPD, 0.02 M CaCl2, 0.2 M sodium acetate pH 7.25, 4°C; space group P63, one protomer per asymmetric unit, trimer by crystallographic symmetry
[4] = molecular target: Caulobacter crescentus suppressor of copper sensitivity protein C, wild type (Caulobacter crescentus); experiment: mass photometry; reduced proteins diluted to ~150 nM and added in 2 µl steps to 10 µl buffer (25 mM HEPES pH 7.5, 150 mM NaCl); Refeyn One; mass of the main peak against the monomer's mass
[5] = molecular target: Caulobacter crescentus suppressor of copper sensitivity protein C, wild type (Caulobacter crescentus); experiment: SEC-SAXS; inline SEC-SAXS (S200 5/150 GL) with sheath flow, 283 K, injection 5.6 mg/ml; molecular mass from the Porod volume
[6] = molecular target: the molecule itself; experiment: mass photometry; reduced proteins diluted to ~150 nM and added in 2 µl steps to 10 µl buffer (25 mM HEPES pH 7.5, 150 mM NaCl); Refeyn One; mass of the main peak against the monomer's mass

Proteus mirabilis ScsC (enzyme)
stoichiometry N [1]: 3

Caulobacter crescentus suppressor of copper sensitivity protein C, C2S variant (enzyme)
stoichiometry N [2]: 3 | stoichiometry N [3]: 3

Caulobacter crescentus suppressor of copper sensitivity protein C, wild type (enzyme)
stoichiometry N [4]: 3 | stoichiometry N [5]: 3

B1: Escherichia coli DsbC (enzyme, UniProt P0AEG6 21-236, looked up)
chain: DDAAIQQTLAKMGIKSSDIQPAPVAGMKTVLTNSGVLYITDDGKHIIQGPMYDVSGTAPVNVTNKMLLKQLNALEKEMIVYKAPQEKHVITVFTDITCGYCHKLHEQMADYNALGITVRYLAFPRQGLDSDAEKEMKAIWCAKDKNKAFDDVMAGKSVAPASCDVDIADHYALGVQLGVSGTPAVVLSNGTLVPGYQPPKEMKEFLDEHQKMTSGK
notes: E. coli DsbC, UniProt P0AEG6; monomer printed as 24.1 kDa; Control protein of the mass photometry; Probably the mature protein without signal peptide; also called EcDsbC
stoichiometry N [6]: 2

From PMC8900818, “The suppressor of copper sensitivity protein C from Caulobacter crescentus is a trimeric disulfide isomerase that binds copper(I) with subpicomolar affinity” (Acta Crystallographica. Section D, Structural Biology, 2022)
